pKd: −log10 of the molar value.
Biological target: Siglec-specific antibody for Siglec-9 (R&D Systems MAB1139)
Experiment: ForteBio Octet; construct captured on AHC biosensor, antibody titrated; 1:1 fit

Sig-9-Fc (Fc fusion)
pKd: > 8.00

Reference: patent US20240156979A1
